In PMC12365351:

Experiments:
[1] = target: rNcSRS2* (recombinant Neospora caninum SRS2, residues 54-401, Strep-tag removed by enterokinase) (Neospora caninum); assay: SEC; preparative SEC of the proteins after removal of the Strep-tag with enterokinase, 0.1 M Tris-Cl pH 8.0, 0.15 M NaCl, 1 mM EDTA; unique peak slightly shifted towards smaller size; self-association (dimer)
[2] = target: rNcSAG1* (recombinant Neospora caninum SAG1, residues 31-317, Strep-tag removed by enterokinase) (Neospora caninum); assay: as above
[3] = target: rNcSRS2-ST (recombinant Neospora caninum SRS2, residues 54-401, with C-terminal Twin-Strep-tag) (Neospora caninum); assay: SEC; analytical SEC of the re-injected main peak, Superdex 200 Increase 10/300 GL, 0.1 M Tris-Cl pH 8.0, 0.15 M NaCl, 1 mM EDTA, 0.5 ml/min; MW estimated from calibration with LMW and HMW kits; self-association (dimer)
[4] = target: rNcSAG1-ST (recombinant Neospora caninum SAG1, residues 31-317, with C-terminal Twin-Strep-tag) (Neospora caninum); assay: as above

rNcSRS2* (recombinant Neospora caninum SRS2, residues 54-401, Strep-tag removed by enterokinase) (domain or fragment)
stoichiometry N [1]: 2

rNcSAG1* (recombinant Neospora caninum SAG1, residues 31-317, Strep-tag removed by enterokinase) (domain or fragment)
stoichiometry N [2]: 2

rNcSRS2-ST (recombinant Neospora caninum SRS2, residues 54-401, with C-terminal Twin-Strep-tag) (domain or fragment)
stoichiometry N [3]: 2

rNcSAG1-ST (recombinant Neospora caninum SAG1, residues 31-317, with C-terminal Twin-Strep-tag) (domain or fragment)
stoichiometry N [4]: 2
